One data set concerns the target T1, ENT2 (Homo sapiens, UniProt Q14542).
T1 sequence (Q14542 1-456): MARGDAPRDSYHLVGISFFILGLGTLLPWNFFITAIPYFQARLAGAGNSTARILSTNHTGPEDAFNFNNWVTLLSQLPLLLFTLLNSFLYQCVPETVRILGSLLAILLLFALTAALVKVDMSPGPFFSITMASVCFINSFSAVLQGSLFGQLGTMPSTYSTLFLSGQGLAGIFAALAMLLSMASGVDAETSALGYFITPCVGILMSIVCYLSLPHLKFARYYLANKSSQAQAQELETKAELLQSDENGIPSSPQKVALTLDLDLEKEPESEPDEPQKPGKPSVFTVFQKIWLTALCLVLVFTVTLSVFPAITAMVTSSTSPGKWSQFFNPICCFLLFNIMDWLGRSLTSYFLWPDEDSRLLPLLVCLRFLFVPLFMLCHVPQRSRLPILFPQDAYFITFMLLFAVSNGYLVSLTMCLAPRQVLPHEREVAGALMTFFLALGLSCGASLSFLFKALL
Conditions: cited from earlier work.

In another data set the test system is ENT3. On the set-up: method as in PMID 34144123. Conditions: read-out: km of ENT3 for Ado transport; cited from earlier work.
Substrate in data set [1]: C[C@H](CCC(=O)O)[C@H]1CC[C@H]2[C@@H]3CC[C@@H]4C[C@H](O)CC[C@]4(C)[C@H]3C[C@H](O)[C@]12C
As to the kind of experiment: Radiolabeled BA transport in ENT2 mRNA-injected Xenopus oocytes. Type of data set: cell-based, human. As to conditions: pH 7.4.

Substrate in data set [2]: C[C@H](CCC(=O)O)[C@H]1CC[C@H]2[C@@H]3[C@H](O)C[C@@H]4C[C@H](O)CC[C@]4(C)[C@H]3C[C@H](O)[C@]12C
Described as above. It is filed as cell-based, human. As to conditions: pH 7.4.

Where [3] appears, read: other: printed in picture Fig. 2B.

Where “and” joins values, the source holds several entries; their conditions need not be identical. Equal values may be shown once. Read-outs that look alike come from different tables or passages of the source.

The term Km denotes the concentration of substrate that gives half-maximal velocity. `Nc1ncnc2c1ncn2[C@@H]1O[C@H](CO)[C@@H](O)[C@H]1O` [Ado, adenosine]: the Km at ENT2 (read-out: Km of ENT2 for Ado transport) was roughly 100 µM; in the data set with ENT3, 2000 µM.
Take `Nc1nc2c(ncn2[C@@H]2O[C@H](CO)[C@@H](O)[C@H]2O)c(=O)[nH]1` [guanosine]: at ENT2 (cloned ENT2-expressing ENT-deficient PK15 cells, read-out: km for guanosine, ENT2), the Km is 2700 µM.

B1: ENT2 (Homo sapiens) (protein)
chain: T1 sequence (Q14542 1-456)
notes: The complete ORF of ENT1 (amplified using forward primer); expressed in transfected cells; host or cells: Xenopus laevis oocytes injected with in vitro-transcribed capped mRNA from pOX-hENT2
For the molecule B1, the Km is 491 µM in data set [1] (other: oocytes, Fig. 2B); 500 µM in data set [1] (setting [3]); 195 µM and 200 µM in data set [2] (other: oocytes, Fig. 2B); 200 µM in data set [2] (setting [3]).

The values above are taken from PMC12152883, “Bile acids inhibit equilibrative adenosine transport to alter adenosine receptor signaling in cholestasis” (The Journal of Biological Chemistry, 2025).
